Results: the nanobody polyreactivity screen of Harvey et al. (2022)

Experiment: yeast display, Sf9 membrane polyspecificity reagent, FACS + sequencing; frameworks hold sequencing errors
Method in brief: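 Nanobodies came from a synthetic yeast display library in Saccharomyces cerevisiae BJ5465, induced with galactose for 36–48 hours and stained for 1 hour at 4 °C with 10% biotinylated, detergent-solubilized Sf9 membrane reagent. Cells were enriched on streptavidin microbeads and then FACS-sorted, with low and high (top ~1%) gates set on anti-HA fluorescence for expression and streptavidin fluorescence for reagent binding. Each polyreactivity label reflects the gate a clone came from. Genes were amplified by colony PCR, sequenced by MiSeq 2 × 250 and filtered by CDR length.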

Row | Sequence | polyreactivity (PSR sort gate)
1 | QVQLVESGGGLVQAGGSLRLSCAASGRTFRRNAMGWYRQAPGKERELVAAINTGGGTYYADSVKGRFTISRDHAKNTVYLQMNSLKPEDTAVYYCNAGTRYGSFSYVKYDWGQGTQVTVSS | high polyreactivity
2 | QVQLVESGGGLVQAGGSLRLSCAASGIIFRDYGMGWYRQAPGKESEIVATITYSGGGTYYADSVKGRFTISRDNANNTVYLQMNSLKPEDTAVYYCAAYPFYYDLAYDYWGQGTQVTVSS | low polyreactivity
3 | QVQLVESGGGLVQAGGSLRLSCAASGRTSTGYAMGWYRPAPGKERELVAGIDKIGGRTYYADSVKGRFTISRDNEKNTVYLQMNSLKPEDTAVYYCNRVPRRSIRYDYWGQGTKVTVSS | high polyreactivity
4 | QVQIVESGGGLVQAGGSLRLSCAASGSTFYSYAMGWYRPAPGKERELVAGISYIGGRTYYADSVKGRFTISRDNAKNTVYLQMNSLKAEDTAVYDCAADQYGTTYGYWGHGTQVTVSS | high polyreactivity
5 | QVQLVESGGGLVQAGVSLRLSCAASGSIFQSYDMGWYRQEPGKEREVVAAISWSGSTTYYADSVKGRFTLSRDNAKNTVYLQMNSLKPEDTAVYYCAVDSNPPDWWAVIYGFWGQGTQVTVSS | low polyreactivity
6 | QVQLVESGGGLVQAGGSLRLSCAASGRTFYYYAMGWYRQAPGNERELVAAISRGGGTNYADSVKGRFTISRDNAKNTVYLQMNSLKPEDTAVYYCAAARIGPQRYDYWGHGTQVTVSS | high polyreactivity
7 | QVQLVESGGGLVQAGGSLRLSCAASGRTFYYYAMGWYRPAPGKERELVAAITSGGRTYYADSVKGRFTISRDNAKNRVYLQMQSLKPEDTAVYYCAARDFFRYSLGYDYWGQGTQVTVSS | high polyreactivity
8 | QVQLVESGGGLVQAGGSLRLSCAASGSIFQSYAMGWYRQAPGKERELVAAIDRSGTSTYYADSVKGRFTISRDNAKNTVYLQMNSLKPEDTAVYYCNTLRRSWQMDYWGQGTQVTVSS | low polyreactivity
9 | QVQLVESGGGLVQAGGSLRLSCAASGRTFPYNAMVWYRQAPGKERELVARITSGVRTYYADSVKGRFTISRDNAKNTVYLQMNSLKPEDTAVYYCAATTYNRFYRAPTSKYDYWGQGTQVTVSS | high polyreactivity
10 | KVQLVESGGGLVQAGGSLRLSCAASGNPLLFNALGWYRQAPGKERELVARITSSGASTYYADSVKGRFTISRDNAKNTLYLQMNSLKAEDTAVYYCAARTRTRRGYTSGDYWGQGSQVTVSS | high polyreactivity
11 | QVQLVESGGGLVQAGGSLRLSCAASGFIFGYYTMGWYRQAPGKERELVAAISSRGGSTYYAYSVKGRFTISRDNAKNTVYLQINSLKPEDTAVYYCAKRSTYTGSWWERGYCGQGTQVTVSS | high polyreactivity
12 | QVQLVESGGGLVQAGGSLRLSCAASGFTFGRYAMGWYRQAPGKEREFVAAITWSGGGTYYADSVKGRFTISRDNAKYTVYLQMYSLKPEDTAVYYCAADRRAYGGGYWGQGTQVTVSS | high polyreactivity
13 | QVQLEESGGGLVKAGGSLRLSSAASGITIGIYLIGWYRQAPGTESEFVATISRSDDNTYYADSVMGRFTISRDNAKNTVYLQMNSLKPEDSAVYYCPADGVISAWYSSRDDYWGKGTQVTVSS | low polyreactivity
14 | QVQLVESGGGLVQAGGSLRLSCAASGYTFWDYTMGWYRQAPGKEREFVAAINWSGGSTYYADSVKGRFTISRDNAKNTVYLQMNSLKPEDTAVYYCAARRGGRRGYDYWGQGTQVTVSS | high polyreactivity
15 | QVQLVESGGGIVQAGGSLRLSCAASGSTIDKNAMGWYRQAPGKERELVAAINNGGGTTYYADSVKGRFTISRDNAKNTVFLQMNSLKPEDTAVYYCAAVGKAYWSDYQYRYYYWGQGTQVTVSS | low polyreactivity
16 | QVQLVESGGGLVQAGGSLRLSCAASGSIFGFYAMGWSRQAPGKERELVAAITSGARTTYADSVKGRFTISRDNAKNTVYLQMNSLKPEDTAVYYSNADTGLGSLDFDKRDYWGQGTQVTVSS | low polyreactivity
17 | QVQLVESGGGLFQAGGSLRLSCAASGRIFGNNTMGWYRQAPGKERELVAAINSGGRTYYADSVKGRFTISRDNAKYTVYLQMNSLKTEDTAVYYCATTTYKRFYRAPTSKYDYWGQGTLVTVSS | high polyreactivity
18 | QVQLVESGGGLVQAGGSLRLSCAASGITFAYYAMGWYRQAPGKERELVAAITRRGSSTYYADSVKGRFTISRDNAKNTVYLQMNSLKPEDTAVYYCAAVAYGRERYDYWGQGTQVTVSS | high polyreactivity
19 | QVHLVESGGGLVQAGGSLRLSCAASGRIFAGYARGWYRQAPGKERELVAAISDGGTTNYADSVKGRFTISRDNAKNTVYLQMNSLKPEDTAVYYGAKDAAESYRYGYWGQGTQVSVSS | low polyreactivity
20 | QVQLVESGGGLVQARGSLRLSCAATGLTFYSNAMGWSRQAPGKERELVARISTGGSTYADSVKGRFTISRDNAKNTVYLQMNSLKPEDTAVYYCAKLPPRGIDDEYWGQGTQVTVSS | low polyreactivity
21 | QVQLVESGGGLVQAGGSLRLSCAASGRIFVFNAMGWYRQAPGKEREFVAVISTGGGSTYYADSVKGRFTISRDNAKNTVYLQMNSLKPEDTAVYYCAAEWRVYYATYGYWGQGTQVTVSS | high polyreactivity
22 | QVQLVESGGGLVQAGGSLRLSCAASGSTFSNYALGWYRPAPGKERELVAAITGRGGRTYYADSVKGRFTISRDNAKNTVYLQMNSLKPEDTAVYYCNADYWSRMDYWGQGTQVTVSS | high polyreactivity

Row | Sequence | polyreactivity (PSR sort gate)
23 | QVQLVETGGGLVQAGGSLRLSCAASARTFVPYAMGWYRPAPGKERELVADITDGDVSTYADSVNGRFTISRDKAKNTVYLQMNSLKPDDNAVYYCAAQYRRLVTRWPVTFGYWGQGTQVTVSS | low polyreactivity
24 | QVQLVESGGGLVQAGGSLRLSCAASGSIVTANAMAWYRPAPGKERELVAAITTSGTSTYYADSVKGRFTLSRDNAKNTVYLQMNSLKPEDTSVYYCNADKFYRAGSELDYWGQGTQVTVSS | high polyreactivity
25 | QVQLEESRGGLVHAGGSLRLSCAASGYSFYIYAMGWYRQAPGKERELVAAISSSGGRTYYADSVKGRFTISRDNAKNTVYLQMNSLKPEDTAVYYCNALYRYGWLYAPKYNSCGQGTQVTVSS | high polyreactivity
26 | QVQLLESGGGLVQAGGSLRLSCAASGSIFYLYAMGWYIQAPGKERELVAVIRRGGSTKYADSVKGRFTISRDNSKNSVYLQMNSLKPEDTAVYDCNVVGYAYGWQYDYWGQGTQVNVSS | high polyreactivity
27 | QVQLVESAGGLVQAGGSLRLSCAASGFIFEWYTMGWYRHAPGKERELVARISSDGSTTYADSVKGRFRISRDNAKNTVYLQMNSLKPEDTAVYYCAADVTYPGLKYIFDYWGQGSQVTVSS | low polyreactivity
28 | QVQLVESGGGLVQAGGILRLSCAASGYIFVRNAMGWYRQAPGKERELVAAISGSGGSTYYADSVKGRFTISRDNAKNTVYLQMNRLKPEDTEVYYCAADYATVTWRGIAYDYWGQGTQVTVSS | low polyreactivity
29 | QLQLVESRGGLVQAGGSLRLSCAASGRIFFSNPMGWYIQAPGKDRELVASMTGGDDTNYADSVKGRFTISRDNAKNTVYLQMNSLKPEDTAVYYCAARAIPSYRWVYRFAPQYDYWGQGTQVTVSS | low polyreactivity
30 | QVQLVESGGGIVQAGRSLRLSCAASGSIFDFNAMGWYRQAPGKERELVAAITWGGGSTYYAYSVKGRFTNSRDNEKNTVYLQIKSLKPEDTAVYYCNAAYGRYRYDYWGQGTQVTVSS | low polyreactivity
31 | QVQLVESGGGLVQAGGSLRLSCAASGGTFNGYAMGWYRQAPGKERELVAAITSSGGSTYYADSVKGRFTISRDNAKNTVYLQMNSLKPEDTAVYYCAAALYPTYDVVRGYAYEYWGQGTQVTVSS | low polyreactivity
32 | QVQLVESGGGLVQAGGSLRLSCAASGFTIWRYAMGWYRQAPGKERELVAAISWRGGSTYYADSVKGRFTISRDNAKNTVYLQMNSLKPEDTAVYYCAAAYNLPPGYDYWGLGTQVTVSS | high polyreactivity
33 | QVQLVESGGGIVQAGGSLRLSCAASGGTCWFYDMGWYRQAPGKERELVAAINSDGSTYYADSVKGRFTISRDNAMNTVYLQMNSLQPEDTAVYYCAADISLHWYYYRRYNYWGQGTQGTVSS | low polyreactivity
34 | QVQLVEPGGGLVQAGGSLRLSCAASGSIFAYYVMGWYRQAPGKERELVAGISFSGGTTYYADSVNGRFTISRDNAKNTVYLQMNSLKPEDTAVYYCNADPDHREFDYWGQGTQVTVSS | low polyreactivity
35 | QVQLVESGGGLVQAGGSLRLSCAASGSTFRRYAMGWYRQAPGKERELVADISSGGSTYYADSVKGRFTISRDNAKNTVYLQMNSLKPEDTAVYYCNAKTFYYGSRFRRAEYDYWGQGTQVTLSS | low polyreactivity
36 | QVQLVESGGGLVQAGGSLRLSCAASVSIMARNAMVWYRQAPGKERELVAAISNSGSTNYADSVKGRFTISRDNAKNTVYLQMNSLKPEDTAVYYCAKDADHGWFEYDYWGQGTQVTVSS | low polyreactivity
37 | QVQLVESGGGLVQPGGSLRLLFAASGSNFVYNEMGWYRQAPGKERELVAGIDWSGDRTYADSVKRRFTNSRDNAKNTVYLQMNSLKQEDTAVKYCNADEWLWDEIIPFAVDYWGQGTQVTVSS | low polyreactivity
38 | QVQLVESGGGLVQAGGSLRLSCAASGSIIAYYGMGWYRQAPGKESELVAAITSDASTYYADSVKWRFTISRDNAKKTDYLQMNSLKPVDTAVYYCYAYSYYYVYGYDMGYWGQGTQVTVSS | low polyreactivity
39 | QVQLVESGGRLVQAGGSLRLSCAASGSIFPGNAMGWYRQAPGKDREYVGAISWSGGSTNYADSVKGRFTISRDNAKYTVYLQMNSLKPEDTAVYYCAKRFVRLDPTTQLYGKAYEYWGQGTQVTVSS | high polyreactivity
40 | QVQLVESGGGLVQAGGSLRLSCAASGSTFDWYAMGWYRQAPGKERELVARIRWSGGSTYYADSVKGRFTISRDNAKNTVYLQMNSLKPEDTAVYYCAARTQTWPQYGYWGQGTQVTVSS | high polyreactivity
41 | QVQLVESGGGLVQAGGRLRLSCAASGIIFQYNAMGWYRQAPGKEREFVAAISYGGTSTYYADSVKGRFTISRDNAKNTVYLQMNSLKPEDTAVYYCAADYQGYTPSDGRYYWGQGTQVTVSS | low polyreactivity
42 | QVQLVESGGGLVQAGGSHRLSCDSSGTFKWYAMGWYRQAPGKERELVAVISTSGGTTNYADSVKGRFTISLDNAKNTVYLQMNSLKPEDTAVYYCNAAKLFRYDYWGQGTQVTVSS | high polyreactivity
43 | QVQLVESGGGLVQAGGSLRLSCAASGITFKSNAMGWYRQAPGKERELVAAISRRASSTYYADSVKGRFTISRDNAKNTVYLQRNSLNPEDTAVYYCNAVLPVYRTNMDYWGQGTQVSVSS | high polyreactivity
